Measurements as given in the supplement of paper PMC9732359.
± gives the uncertainty stated by the source.

Experiment: protein stability index of a GFP-peptide fusion (yeast GPS) (PSI 1-4); higher = more stable; sorted into four equal gates, so the index is relative within each strain
Outline: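 Plasmids in a pooled yeast library fused tiled 17-residue yeast protein peptides downstream of GFP and also expressed Cherry. Mid-log cultures grown without leucine were sorted into four equal gates by GFP/Cherry fluorescence ratio. Each gate's plasmids were PCR-amplified and Illumina-sequenced, and reads were matched to strains by barcodes. The protein stability index is derived by multiplying each gate's read frequency by its gate number and summing the results.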

Row | Sequence | protein stability index (doa10∆) | protein stability index (pdr5∆) | protein stability index (san1∆) | protein stability index (ubr1∆)
1 | RLLPINVNKKALGQDTE [MED11] | 2.84 ± 0.061 | 2.96 ± 0.062 | 2.89 ± 0.035 | 3.16 ± 0.052
2 | QLLDTSNQRFKDLQWLE [SIN4] | 3.02 ± 0.066 | 2.96 ± 0.076 | 2.88 ± 0.06 | 2.91 ± 0.043
3 | IDGPKAGVPRQAINLGQ [RPL14A] | 3.58 ± 0.14 | 3.29 ± 0.11 | 2.69 ± 0.11 | 3.31 ± 0.1
4 | SVKSVKFPTRKIYMLYS [RPC34] |  |  |  | 3.58 ± 0.25
5 | DKDRDTRRKRRQGRSNR [SNF5] | 3.6 ± 0.23 | 3.48 ± 0.16 | 3.31 ± 0.096 | 3.55 ± 0.14
6 | DKEWVFAALSDSYGQGS [SSN2] | 3.18 ± 0.11 | 3.46 ± 0.1 | 3.1 ± 0.13 | 3.34 ± 0.09
7 | ALAYAGTGNNSAVKRLL [RPN2] | 2.68 ± 0.1 | 2.71 ± 0.1 | 2.28 ± 0.14 | 3.26 ± 0.1
8 | ARVLSNYLRQQCNYSSL [PRE5] | 2.71 ± 0.17 | 2.96 ± 0.11 |  | 2.78 ± 0.087
9 | YLKHVSRRFKNGFQTGS [RPL37A] | 2.06 ± 0.085 | 3.23 ± 0.062 | 3.16 ± 0.084 | 3.46 ± 0.056
10 | QSLELMIYDDAHEISQG [BRR2] | 2.73 ± 0.04 | 2.92 ± 0.037 | 2.86 ± 0.037 | 3.02 ± 0.035
11 | DDYVLRIFAIAFTRKQA [RPS1A] | 1.77 ± 0.019 | 1.888 ± 0.017 | 1.94 ± 0.027 | 2.156 ± 0.015
12 | ELCKKNESKIKELNEKI [RPN7] | 3.2 ± 0.12 | 2.73 ± 0.098 | 2.27 ± 0.11 | 2.47 ± 0.13
13 | KSSSNRSCVSNSNENGT [RPN4] | 3.02 ± 0.06 | 3.08 ± 0.07 | 3.01 ± 0.05 | 3.03 ± 0.048
14 | VGVIGPLHSGKTSLMDL [SNU114] | 2.97 ± 0.11 | 2.68 ± 0.11 | 3.29 ± 0.19 | 3.13 ± 0.07
15 | RRANFYKENEAMLRENI [SNF12] | 3.29 ± 0.094 | 3.2 ± 0.14 | 3.33 ± 0.074 | 3.39 ± 0.11
16 | TALKQYEKELMGDELTR [RPN6] | 3.26 ± 0.13 | 3.54 ± 0.15 | 3.42 ± 0.077 | 3.51 ± 0.12
17 | YEILLKILITYGSSPKL [SRB8] | 1.27 ± 0.055 | 1.6 ± 0.053 | 1.35 ± 0.092 | 1.47 ± 0.055
18 | GLSTDHTTQIVNLEDNT [YML103C/NUP188] | 2.89 ± 0.074 | 2.99 ± 0.078 | 2.88 ± 0.053 | 3.04 ± 0.047
19 | QTGTKPVLKKKAAFLGS [COR1] | 2.99 ± 0.064 | 3.14 ± 0.085 | 3.04 ± 0.076 | 3.16 ± 0.058
20 | QEFDSELSKEEKERLES [SMC3] | 2.97 ± 0.12 | 2.96 ± 0.16 | 2.98 ± 0.058 | 3.06 ± 0.081
21 | GGLNDPRLGSIDRNLKC [RPO21] | 3.35 ± 0.17 | 3.28 ± 0.11 | 3.32 ± 0.094 | 3.33 ± 0.086
22 | GWPKLQLGPQTPAFNTA [ECM29] | 1.43 ± 0.21 | 1.48 ± 0.16 | 1.42 ± 0.17 | 1.68 ± 0.2
23 | YLLISKENKKRKNFKMG [IRR1] | 2.91 ± 0.097 | 3.24 ± 0.14 | 3.02 ± 0.06 | 3.11 ± 0.078
24 | PLIIVSDGQSRVKDIHL [RET1] | 2.88 ± 0.3 | 3.58 ± 0.24 | 3.05 ± 0.2 | 2.79 ± 0.15
25 | HLSTYLKVYKVGDIVDI [RPL21A] | 1.22 ± 0.075 | 1.49 ± 0.061 | 1.24 ± 0.16 | 1.16 ± 0.065
26 | VFIFPTSNWEIYKPLLF [SRB8] | 2.15 ± 0.06 | 2.6 ± 0.083 | 2.84 ± 0.062 | 2.74 ± 0.056
27 | PQLTFTHVANFMNDAAA [YML103C/NUP188] | 3.04 ± 0.094 | 3 ± 0.082 | 2.7 ± 0.068 | 2.95 ± 0.05

Row | Sequence | protein stability index (doa10∆) | protein stability index (pdr5∆) | protein stability index (san1∆) | protein stability index (ubr1∆)
28 | DVAAKCKEVGITAVHVK [RPS14A] | 2.56 ± 0.057 | 2.81 ± 0.065 | 2.72 ± 0.062 | 2.62 ± 0.041
29 | KLLLLNTSAIQETASPL [YIL149C/MLP2] | 2.33 ± 0.13 | 2.42 ± 0.21 |  | 2.56 ± 0.088
30 | KGRFAVHRITDEEASYK [RPS4A] | 3.13 ± 0.075 | 3.2 ± 0.091 | 3.35 ± 0.061 | 3.33 ± 0.07
31 | EATQDDDFDMLFGENDT [NUT1] | 2.92 ± 0.071 | 3.13 ± 0.06 | 3.06 ± 0.065 | 3.04 ± 0.062
32 | IVVLVPKFGVEGLIRLD [DIS3] | 2.16 ± 0.07 | 2.41 ± 0.063 | 2.31 ± 0.085 | 2 ± 0.054
33 | VAHITTKSPAYPMMHQV [RGR1] | 1.79 ± 0.046 | 1.91 ± 0.054 | 1.85 ± 0.067 | 1.68 ± 0.068
34 | DRSLADDYDYVMYGTAY [RPB8] | 2.56 ± 0.059 | 2.98 ± 0.064 | 3.02 ± 0.063 | 2.73 ± 0.074
35 | LKNFLSYESLKKRKIHN [MCD1] | 1.55 ± 0.038 | 1.46 ± 0.039 | 2.12 ± 0.048 | 1.59 ± 0.034
36 | VDVAIPCNNRGKHSIGL [RPS0A] | 2.81 ± 0.096 | 2.91 ± 0.1 | 3.09 ± 0.067 | 3.07 ± 0.11
37 | IRPDGRLPHQFRPIEIF [RRP42] | 1.84 ± 0.087 | 1.94 ± 0.084 | 1.35 ± 0.12 | 2.16 ± 0.073
38 | EMERIVKNLTKYLSDIM [SRP68] | 2.76 ± 0.25 | 2.53 ± 0.099 |  | 2.06 ± 0.074
39 | FRSYMDQEKKYGMSITE [RPB2] | 1.69 ± 0.054 | 2.43 ± 0.063 | 2.89 ± 0.065 | 2.75 ± 0.032
40 | NNSANNNAHSSDLGTVV [YMR153W/NUP53] | 3.03 ± 0.15 | 2.62 ± 0.1 | 2.7 ± 0.091 | 2.28 ± 0.044
41 | GAMGLLSSAGAKSTVET [RIP1] | 2.01 ± 0.12 | 2.46 ± 0.11 | 2.14 ± 0.18 | 2.35 ± 0.09
42 | IVDTSGRHHQEEELFQE [SRP54] | 3.31 ± 0.07 | 3.13 ± 0.043 | 3.07 ± 0.056 | 3.24 ± 0.053
43 | DLRLGSQSLGVSNKFEK [PUP3] | 3.52 ± 0.14 | 3.52 ± 0.16 | 2.94 ± 0.13 | 3.62 ± 0.13
44 | VLYHTSGAITFVNETPR [PRP8] | 2.06 ± 0.06 | 2.24 ± 0.075 | 2.43 ± 0.068 | 1.53 ± 0.04
45 | EEEDAKNPLFSYVEPVL [RPL31A] | 2.88 ± 0.042 | 2.63 ± 0.036 | 2.12 ± 0.047 | 2.21 ± 0.026
46 | SADPSLLIDQFSPVISQ [SWI1] | 2.85 ± 0.12 | 3.08 ± 0.1 | 2.51 ± 0.18 | 2.96 ± 0.067
47 | EALFQSRPDILSKIKFP [YCG1] | 2.75 ± 0.067 | 2.62 ± 0.057 | 2.82 ± 0.067 | 3.13 ± 0.058
48 | AAKKRRPAAKGKNLSFK [RRP6] | 2.35 ± 0.24 | 2.77 ± 0.14 | 2.35 ± 0.2 | 2.72 ± 0.1
49 | LKVNVTLDNPLLVDKDA [YJL039C/NUP192] | 3.02 ± 0.077 | 2.93 ± 0.065 | 3 ± 0.041 | 2.7 ± 0.051
50 | SKKRKLNSLTNLLSKRN [SNM1] | 2.87 ± 0.071 | 2.99 ± 0.059 | 2.84 ± 0.055 | 2.81 ± 0.057
51 | VHPGANYLLKRNEDARR [RPO31] | 3.21 ± 0.067 | 3.14 ± 0.077 | 2.93 ± 0.077 | 3.35 ± 0.038
52 | SKRVYKILSPTMYMEVY [CDC53] | 2.29 ± 0.075 | 2.68 ± 0.098 | 2.15 ± 0.076 | 2.63 ± 0.092
53 | VHRITDEEASYKLGKVK [RPS4A] | 3.01 ± 0.087 | 3.13 ± 0.13 | 2.98 ± 0.12 | 3.07 ± 0.12
